Patent US20250250593A1, “METHOD FOR PREPARING ALPHA-BRANCHED BETA'-HYDROXY CARBONYL COMPOUNDS BY ENZYMATIC-CATALYZED REDUCTIVE ALDOL REACTION” (Max-Planck-Gesellschaft zur Förderung der Wissenschaften …, priority 2022, published 2025)
“And” between values parts separate entries of the source, which are not always exact repeats. Identical values can stand only once.

What was measured:
[1] = biological target: T1, Kitasatospora setae crotonyl-CoA carboxylase/reductase (KsCcr), wild type (WT), SEQ ID NO: 1 (Kitasatospora setae, UniProt E4N096); assay type: biochemical; conditions: apparent turnover rate with formaldehyde as electrophile; 100 mM K2HPO4 pH 8.0, 30 °C; mean ± standard error
T1 construct: gene provided by JGI
T1 sequence (E4N096 1-445): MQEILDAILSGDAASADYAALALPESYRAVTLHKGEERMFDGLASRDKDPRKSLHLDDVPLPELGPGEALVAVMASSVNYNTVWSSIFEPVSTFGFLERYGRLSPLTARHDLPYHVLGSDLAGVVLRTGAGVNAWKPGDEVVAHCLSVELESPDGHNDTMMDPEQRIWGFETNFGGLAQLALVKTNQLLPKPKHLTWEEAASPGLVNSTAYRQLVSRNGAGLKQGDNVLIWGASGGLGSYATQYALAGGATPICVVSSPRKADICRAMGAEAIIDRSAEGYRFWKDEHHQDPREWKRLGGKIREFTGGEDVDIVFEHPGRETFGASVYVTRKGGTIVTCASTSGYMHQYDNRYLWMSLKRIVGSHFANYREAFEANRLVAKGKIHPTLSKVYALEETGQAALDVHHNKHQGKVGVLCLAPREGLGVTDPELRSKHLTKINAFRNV
Method: His-tagged KsCcr and its variants were expressed in E. coli BL21 (DE3). Cells in terrific broth were grown at 37° C. to an OD600=0.8-1.0 upon which expression for 12-16 h at 23° C. was induced by the addition of 500 μM IPTG (Isopropyl-D-β-thiogalactopyranoside). Cells were harvested for 15 min at 7500× g at 4° C. then resuspended in 2 mL of buffer A (50 mM Tris, 500 mM NaCl, 1 M L-Proline, pH=7.5) per gram of pellet. The suspension was treated with […] of DNAse I, 5 mM MgCl2, 10 μg/ml of lysozyme and incubated on ice for 20 min upon which cells were lysed using a sonicator. The lysate was clarified at 45000× g at 4° C. for 40 min and then loaded onto a pre-equilibrated 1 mL HisTrap FF column and washed with 15% buffer B (50 mM Tris, 500 mM NaCl, 1 M L-Proline, 500 mM imidazole, pH=7.5) for 20-30 column volumes until the UV 280 nm reached the baseline level. […]
Formaldehyde stock solution concentration was determined by following the formation of phenylhydrazone at 368 nm (εPhenylhydrazone,368 nm=6.1 mM^−1 cm^−1). […]
For reactions in which the full conversion to the aldol product was achieved assays were performed on a Cary-60 UV/Vis spectrophotometer (Agilent) at 30° C. using quartz cuvettes (1 mm, 3 mm or 10 mm path length; Hellma). […] Kinetic parameters for one substrate were determined by varying its concentration while the others were kept constant at 10 times their KM value.

CcCcrPAG = assay: Substrate promiscuity screen: enoyl-CoAs with aldehydes, LC-MS; assay type: biochemical, Caulobacter crescentus; conditions: six enoyl-CoAs with formaldehyde, acetaldehyde, propionaldehyde, benzaldehyde; with Acx4 and catalase
Source text: According to phylogenetic and structural analysis, KsCcr belongs to the ECR-1 subfamily of enzymes that are mainly restricted to short-chain enoyl-CoAs. To increase the substrate scope of reductive aldol reactions, the inventors sought to use a more promiscuous enzyme. To that end, a triple variant of Caulobacter crescentus crotonyl-CoA carboxylase/reductase (CcCcrC146P/1169A/F373G, here CcCcrPAG) was employed that had been engineered to accept a variety of enoyl-CoAs, including short- and long-chain, branched, aromatic, bulky and halogenated analogs. Six different enoyl-CoA substrates (FIG. 4) were synthesized and tested in combination with four different aldehydes (formaldehyde, acetaldehyde, propionaldehyde, benzaldehyde) and by LC-MS.
Assays were performed in 100 mM K2HPO4 pH=8.0 at 30° C. and 10 μL samples were taken at different time points and quenched with 1 μL of 50% formic acid. The samples were spinned at 17000 g for 10 min at 4° C. to precipitate the protein and then analyzed by LC-MS.
Determination of CoA esters was performed using a HRES-LC-MS. […]

[2] = system: crotonyl-CoA carboxylase/reductase obtained from Caulobacter crescentus (CcCcr); assay: First empirical data on reductive aldol reaction by CcCcr; assay type: biochemical

C/C=C/C(=O)SCCNC(=O)CCNC(=O)[C@H](O)C(C)(C)COP(=O)(O)OP(=O)(O)OC[C@H]1O[C@@H](n2cnc3c(N)ncnc32)[C@H](O)[C@@H]1OP(=O)(O)O [Crotonyl-CoA, crotonyl-CoA]
Kcat [1]: 30 s⁻¹ and 30 ± 1 s⁻¹

B1: CcCcrPAG: triple variant of Caulobacter crescentus crotonyl-CoA carboxylase/reductase engineered to accept a variety of enoyl-CoAs, SEQ ID NO: 29 (protein)
chain: MTIQTLETTALKDLYEIGEIPPAFHVPKTMYAWSIRKERHGKPTQAMQVEVVPTWEIGEDEVLVLVMAAGVNYNGVWAALGEPISPLDGHKQPFHIAGSDASGIVWKVGAKVKRWKLGDEVVIHPNQDDGDDEECNGGDPMFSSSQRAWGYETPDGSFAQFCRVQSRQLLPRPKHLTWEESACYTLTLATAYRMLFGHKPHELKPGQNVLVWGASGGLGVFATQLAAVAGANAIGVVSSEDKREFVLSMGAKAVLNRGEFNCWGQLPKVNGPEFNDYMKESRKFGKAIWQITGNKDVDMVFEHPGEQTFPVSVFLVKRGGMVVICAGTTGFNLTMDARFLWMRQKRVQGSHGANLMQASAANQLVIDRRVDPCLSEVFPWDQIPAAHEKMLANQHLPGNMAVLVCAQRPGLRTFEEVQELSGAP
modifications: CcCcr C125P/I148A/F352G
conversion of enoyl-CoAs to aldol products (CcCcrPAG): catalyzed conversion of all the tested enoyl-CoAs

B2: CcCcr: wild type crotonyl-CoA carboxylase/reductase obtained from Caulobacter crescentus, SEQ ID NO: 2 (protein)
chain: MTIQTLETTALKDLYEIGEIPPAFHVPKTMYAWSIRKERHGKPTQAMQVEVVPTWEIGEDEVLVLVMAAGVNYNGVWAALGEPISPLDGHKQPFHIAGSDASGIVWKVGAKVKRWKLGDEVVIHCNQDDGDDEECNGGDPMFSSSQRIWGYETPDGSFAQFCRVQSRQLLPRPKHLTWEESACYTLTLATAYRMLFGHKPHELKPGQNVLVWGASGGLGVFATQLAAVAGANAIGVVSSEDKREFVLSMGAKAVLNRGEFNCWGQLPKVNGPEFNDYMKESRKFGKAIWQITGNKDVDMVFEHPGEQTFPVSVFLVKRGGMVVICAGTTGFNLTMDARFLWMRQKRVQGSHFANLMQASAANQLVIDRRVDPCLSEVFPWDQIPAAHEKMLANQHLPGNMAVLVCAQRPGLRTFEEVQELSGAP
modifications: Caulobacter crescentus CcCCR crotonyl-CoA carboxylase/reductase
ability to catalyze a reductive aldol reaction [2]: able to catalyze a reductive aldol reaction
